Here are results for 2 proteins from article PMC5656675, “Structure based biophysical characterization of the PROPPIN Atg18 shows Atg18 oligomerization upon membrane binding” (Scientific Reports, 2017).

Data set [1] deals with the molecule itself. The data set is described as follows: native MS; purified Atg18 exchanged into 200 mM ammonium acetate; Q-ToF Ultima modified for high mass complexes.
Data set [2] deals with the molecule itself. Description: FRET or BRET; stopped-flow, 0.5 µM acceptor-labelled Atg18 C113 bound to LUVs with PtdIns(3,5)P2 (1 mM total lipid) mixed with 0.5 µM donor-labelled Atg18 C113 free in solution; 25 °C, HP150 buffer with 0.1 mM TCEP; dye pairs Alexa Fluor 488/546 and Oregon Green/Texas Red. A general note: Bioluminescence resonance energy transfer reports proximity on the nanometre scale.

B1: Pichia angusta Atg18 (wild type) (natural protein, Pichia angusta (Hansenula polymorpha))
chain: MASPNPLAFEAATAAHEVAASYVTEHKPRKNDNINFANFNQDFSCVSVGYSNGYKIYNCEPFGQCYSKSDGSIGIVEMLFSSSLLAIVGMGEQHSLSPRRLKIINTKRQTTICELTFPGAILAVKLNRERLVVLLEETIYIYDINNMRLLHTIETPSNPNGLIALSPSSENNYLAYPSPQKLAPNPQTEVTLHSNPQTVRNGDVIIFDAKTLQPTSVIEAHRTSLAAIALSKDGLLLATASDKGTIIRVFSVATGIKLYQFRRGTYPTKIYSLAFSPDNRFVIASSATETVHIFRLGEEEAANTIKSANKKARLTKAQVPNPLETSPDIYPHNQHTSSDEDEELNEDEEDLDGDEDEDLEDDAHVPVSLQRGRSSSSTGSFHSSESMTDKLKEPLVDNSRKSVARMLRRTSQSLGRKAAEKMGTYLPPKFSSILEPNRHFASLKVPASKETKTVVGVGSKIWDDLIPSVYLKDDANSITETSEDLVNKKLVHIMVITSEGFFYKFGLDPERGGDCVLLHQQSLFG
notes: Atg18 of Pichia angusta (Hansenula polymorpha), UniProt entry Q5QA94, synthetic gene in pET-28a; also called PaAtg18; source: E. coli, purified (HisTrap, Superdex 200); not shown: His-tag, N-terminal, kept
One may read the stoichiometry N as a count of units in the complex or per binding partner. With B1, in data set [1], the “stoichiometry N” value is at most 4.

B2: Atg18 C113 single cysteine mutant, fluorescently labelled (natural protein, Pichia angusta (Hansenula polymorpha))
chain: MASPNPLAFEAATAAHEVAASYVTEHKPRKNDNINFANFNQDFSAVSVGYSNGYKIYNAEPFGQAYSKSDGSIGIVEMLFSSSLLAIVGMGEQHSLSPRRLKIINTKRQTTICELTFPGAILAVKLNRERLVVLLEETIYIYDINNMRLLHTIETPSNPNGLIALSPSSENNYLAYPSPQKLAPNPQTEVTLHSNPQTVRNGDVIIFDAKTLQPTSVIEAHRTSLAAIALSKDGLLLATASDKGTIIRVFSVATGIKLYQFRRGTYPTKIYSLAFSPDNRFVIASSATETVHIFRLGEEEAANTIKSANKKARLTKAQVPNPLETSPDIYPHNQHTSSDEDEELNEDEEDLDGDEDEDLEDDAHVPVSLQRGRSSSSTGSFHSSESMTDKLKEPLVDNSRKSVARMLRRTSQSLGRKAAEKMGTYLPPKFSSILEPNRHFASLKVPASKETKTVVGVGSKIWDDLIPSVYLKDDANSITETSEDLVNKKLVHIMVITSEGFFYKFGLDPERGGDAVLLHQQSLFG
modifications: C113 labelled with Alexa Fluor 488 C5 maleimide (donor) or Alexa Fluor 546 C5 maleimide (acceptor); in the repeat with Oregon Green 488 maleimide or Texas Red C2 maleimide
notes: Atg18 of Pichia angusta (Hansenula polymorpha), UniProt entry Q5QA94, synthetic gene in pET-28a; single cysteine mutant that keeps C113; That the other four are alanine in it is read from this; Two differently labelled copies of the same protein were mixed; also called C113 mutant; source: E. coli, purified (HisTrap, Superdex 200), labelled with maleimide dye
Consider B2, for which the binding result in data set [2] is “binds”.
